Kd and EC50 data for 21 molecules are collected here from patent US20210198672A1, “APTAMER FOR SCLEROSTIN AND USE THEREOF” (APTACURE THERAPEUTICS LIMITED, published 2021).

Residue numbers refer to the chain shown, from its start.

The labels stand for the following.
B1: aptscl 8 (ssDNA)
DNA: CGTACGGTCGACGCTAGCCGGCGAAATTGCTACCACGTGGAGCTCGGATCC
B2: aptscl 32 (ssDNA)
DNA: CGTACGGTCGACGCTAGCTGTGTTAATCGCCGTACCTCCACGTGGAGCTCGGATCC
B3: aptscl 51 (ssDNA)
DNA: CGTACGGTCGACGCTAGCTGGGGGTAGGGGGTCCTTGGCTACGGTGATTCGGATGTGACACGTGGAGCTCGGATCC
B4: aptscl 2 (ssDNA)
DNA: CGTACGGTCGACGCTAGCCAGCCAAAGACAGAGATGCACGTGGAGCTCGGATCC
B5: aptscl 12 (ssDNA)
DNA: CGTACGGTCGACGCTAGCCGTTGACTCGTTGCTACACGTGGAGCTCGGATCC
B6: aptscl 9 (ssDNA)
DNA: CGTACGGTCGACGCTAGCTGGGGGTAGGGGGACCCTGGCTAGTTAGTCACCGTTTCGACACGTGGAGCTCGGATCC
B7: aptscl 5 (ssDNA)
DNA: CGTACGGTCGACGCTAGCTGTTGTTCATCGACTTGACGCACGTGGAGCTCGGATCC
B8: aptscl 1 (ssDNA)
DNA: B7 DNA with G20C, C32T, T33C, T34C, G35T
B9: aptscl 6 (ssDNA)
DNA: CGTACGGTCGACGCTAGCTGGAAGGGTGGGGGCGGGGGGTCCTCGCCTCGAACGTACGCACGTGGAGCTCGGATCC
B10: aptscl 29 (ssDNA)
DNA: CGTACGGTCGACGCTAGCCGGAGACCTGAGGTTCACGTGGAGCTCGGATCC
B11: aptscl 22 (ssDNA)
DNA: CGTACGGTCGACGCTAGCTGGGTTTATCGACTAGTTCCACGTGGAGCTCGGATCC
B12: aptscl 3 (ssDNA)
DNA: CGTACGGTCGACGCTAGCTGTTGTACATCGCCTTACGCACGTGGAGCTCGGATCC

T2 sequence (Q9BQB4 24-213): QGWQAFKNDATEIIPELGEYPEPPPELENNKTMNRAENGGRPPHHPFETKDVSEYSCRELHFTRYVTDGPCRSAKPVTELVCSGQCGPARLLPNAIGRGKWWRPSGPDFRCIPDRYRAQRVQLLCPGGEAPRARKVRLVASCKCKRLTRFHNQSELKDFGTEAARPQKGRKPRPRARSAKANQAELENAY
T1 sequence (Q9BQB4 24-213): as above

The first data set addresses T1, sclerostin (SOST) (Homo sapiens, UniProt Q9BQB4 SEQ:1-190). Description: ELONA; PBS, 1 mM MgCl2, RT. The following applies: tags: His6 (stated for the SELEX protein); ELONA used purified recombinant human sclerostin. As to the method:
(§1) An Enzyme-linked OligoNucleotide Assay (ELONA) was performed to determine the binding affinity of the aptamer candidates to sclerostin (Drolet, Moon-McDermott et al. 1996). Similarly, an Enzyme-linked ImmunoSorbent Assay (ELISA) was performed to determine the binding affinity of anti-sclerostin antibody to human sclerostin (Engvall and Perlmann 1971). 160 ng purified recombinant human sclerostin was coated to 96-well microtiter plate in 100 μl PBS by incubating at 4° C. overnight. The plate was then blocked with blocking buffer (PBS, 0.1% Tween 20 and 1% BSA) for 1 h at room temperature and washed with SELEX B&W buffer (PBS, 1 mM MgCl₂, 0.1% Tween 20 and 0.1% BSA) for 4 times. The aptamer candidates were denatured at 95° C. for 10 min and rapidly cooled on ice for 10 min before use. Appropriate concentrations of biotinylated aptamers/antibody were added into each well, then added SELEX B&W buffer to 100 μl and incubated for 45 min at room temperature with continuous gentle shaking. After binding, the plate was washed with SELEX B&W buffer for 4 times to remove non-specific and very weak binding, followed by washing with PBST+0.1% BSA for 4 times. 100 μl streptavidin-HRP/goat anti-human IgG Fc-HRP (1:10000 dilute into PBST+0.1% BSA) was added to each well and incubated for 30/60 min and washed with PBST+0.1% BSA for 4 times. 50 μl TMB was added to each well and incubated for 20 min. The reaction was stopped by adding 50 μl 2 M H₂SO₄. Absorbance at 450 nm was measured with microplate reader (Stoltenburg, Krafcikova et al. 2016). Data was analyzed with Origin software (OriginLab, Northampton, Mass.). A non-linear curve fitting model Hyperbl was used to plot is the binding curve. Equation of Hyperbl model is y=P1*x/(P2+x) and P2 is the Kd value.
(§2) Binding affinity and in vitro inhibition potency were performed using the same protocols in previous studies.
In the case of GTCGACGCTAGCTGTTGTACATCGCCTTACGCACGTG (ssDNA) [aptscl 3-4], the Kd (as a rule, a measure of binding affinity in units of concentration) was 0.22 nM. Same read-out and setting: for GTCGACGCTAGCTGTTGTACATCGCCTTACGCACGTGGAGCTCGGATCC (ssDNA) [aptscl 3-1] the value was 0.86 nM. With GCTAGCTGTTGTACATCGCCTTACGCACGTG (ssDNA) [aptscl 3-5], the Kd came out at 0.22 nM.

In the case of CGTACGGTCGACGCTAGCTGTTGTACATCGCCTTACGCACGTGGAGCTC (ssDNA) [aptscl 3-2], the Kd was found to be 0.52 nM. As for GCTAGCTGTTGTACATCGCCTTACGCACGTGGAGCTC (ssDNA) [aptscl 3-3], the dissociation constant Kd amounted to 0.2 nM.

A further data set deals with T1, sclerostin (SOST). As to the kind of experiment: ELONA; PBS, 1 mM MgCl2, 0.1% Tween 20, 0.1% BSA, RT. The note with it: tags: His6 (stated for the SELEX protein); ELONA used purified recombinant human sclerostin. As to the method:
as §1, with “100 μl streptavidin-HRP/goat anti-human IgG Fc-HRP (1:10000 dilute into PBST+0.1% BSA) was added to each well and incubated for 30/60 min and washed with PBST+0.1% BSA for 4 times. 50 μl TMB was added to each well and incubated for 20 min. The reaction was stopped by adding 50 μl 2 M H₂SO₄.” left out, “A non-linear curve fitting model Hyperbl was used to plot is the binding curve. Equation of Hyperbl model is y=P1*x/(P2+x) and P2 is the Kd value.” left out
CGGGGTGTGGGTTCGTCGTTAGCTTGATTTGGCAGCTGCC (ssDNA) [aptscl 56]: the Kd came to 43.1 nM.

The target in the next data set is T1, sclerostin (SOST). Description: ELONA; PBS, 1 mM MgCl2, RT. The note with it: tags: His6 (stated for the SELEX protein); ELONA used purified recombinant human sclerostin. The source holds these as a separate data set. As to the method:
as §1
On to B1, for which the Kd is 0.005 nM. Still for that read-out and setting: the figure for B2 is 0.18 nM; for B3 it is 62.2 nM. For B4, the Kd is 0.006 nM. As to B5, the dissociation constant (Kd) is 0.005 nM.

For the molecule B6, the Kd is 3.4 nM.

Consider B7, for which the Kd came out at 0.005 nM.

Consider B8, for which the Kd was 0.02 nM. Consider B9, for which the Kd was 4.2 nM. On to B10, for which the Kd was found to be 0.28 nM.

For CCCAGACGAGACACCTCATGCTTTTCCCCGGGGGAGGGGTAT (ssDNA) [aptscl 132], the Kd amounted to 42.2 nM.

On to B11, for which the Kd was determined as 0.76 nM.

For the next data set, the target named is T1, sclerostin (SOST). As to the kind of experiment: ELONA; PBS, 1 mM MgCl2, RT; Table 2 gives 0.02 nM. The following applies: tags: His6 (stated for the SELEX protein); ELONA used purified recombinant human sclerostin. How it is done:
as §1, with “100 μl streptavidin-HRP/goat anti-human IgG Fc-HRP (1:10000 dilute into PBST+0.1% BSA) was added to each well and incubated for 30/60 min and washed with PBST+0.1% BSA for 4 times. 50 μl TMB was added to each well and incubated for 20 min. The reaction was stopped by adding 50 μl 2 M H₂SO₄.” left out, “A non-linear curve fitting model Hyperbl was used to plot is the binding curve. Equation of Hyperbl model is y=P1*x/(P2+x) and P2 is the Kd value.” left out
Take B12: the Kd turned out to be 0.04 nM.

Another data set concerns the target T2, sclerostin (SOST), expressed from plasmid in MC3T3-E1 cells (UniProt Q9BQB4 SEQ:1-190). Description: cell_activity; TOP-Wnt luciferase reporter; stated as inhibition potency.
Settings: not given
A general note: In a reporter assay the amount or activity of a reporter protein is the signal.
With GCTAGCTGTTGTACATCGCCTTACGCACGTG (ssDNA, 2'-OMe at first four (GCTA) and last four (CGTG) nucleotides; 3' idT) [modified aptscl 3-5], the EC50 (usually the concentration that produces a half-maximal response) was determined as 11 µg/mL. The same measure, in the same setting: for CGGGGTGTGGGTTCGTCGTTAGCTTGATTTGGCAGCTGCCC (ssDNA, 2'-OMe at first four (CGGG) and last four (GCCC) nucleotides; 3' idT) [modified aptscl 56] the value was 14 µg/mL.

A further data set addresses T2, sclerostin (SOST), expressed from …. As to the kind of experiment: cell_activity; TOP-Wnt luciferase reporter, MC3T3-E1.
Settings: not given
As to the method:
(§3) MC3T3-E1 cells were seeded in 24-well plates and cells were transfected with corresponding reporter plasmid (100 ng), Wnt3a plasmid (800 ng) and sclerostin plasmid (800 ng) as necessary using FuGENE HD transfection reagent (Promega) in the following day. 10 hours after transfection, culture medium was changed to fresh medium and cells were treated with aptamers/antibody. 24 hours after treatment, each well of cells was lysed with 100 μl passive lysis buffer and 20 μl was taken for analysis. The Luciferase Assay Reagent II and Stop & Glo Reagent were prepared and added automatically by SpectraMax i3x Multi-Mode Detection Platform (Molecular Device) according to the manufacturer's protocol (Promega) and data was analyzed accordingly (Grentzmann, Ingram et al. 1998, McNabb, Reed et al. 2005).
as §2
In the case of GCTAGCTGTTGTACATCGCCTTACGCACGTG (ssDNA) [aptscl 3-5], the EC50 came out at 28.4 µg/mL.

Another data set addresses T1, sclerostin (SOST). Description: ELONA; PBS, 1 mM MgCl2, RT. The note with it: tags: His6 (stated for the SELEX protein); ELONA used purified recombinant human sclerostin. The source holds these as a separate data set.
On to GCTAGCTGTTGTACATCGCCTTACGCACGTG (ssDNA, 2'-OMe at first four (GCTA) and last four (CGTG) nucleotides; 3' idT) [modified aptscl 3-5], for which the equilibrium dissociation constant (Kd) stood at 0.54 nM. Still for that read-out and setting: the figure for CGGGGTGTGGGTTCGTCGTTAGCTTGATTTGGCAGCTGCCC (ssDNA, 2'-OMe at first four (CGGG) and last four (GCCC) nucleotides; 3' idT) [modified aptscl 56] is 6.55 nM.

Another data set deals with T2, sclerostin (SOST), expressed from …. Description: cell_activity; TOP-Wnt luciferase reporter, MC3T3-E1.
Settings: not given
This is another data set of the same source. How it is done: as §3
The inhibition to sclerostin was dose dependent and the response was stable when the concentrations of aptscl 56 and 6 reached to 25 and 47.4 μg/ml, respectively. While treated with antibody, the response was still not stable with the concentration increasing to 20 mg/ml. Furthermore, the inhibition potency of aptscl 56, aptscl 6 and aptscl 3 was analyzed with non-linear curve fitting.
Consider B9, for which the EC50 is 36.8 µg/mL. The same measure, in the same setting: the figure for B12 is 18.2 µg/mL; for CGGGGTGTGGGTTCGTCGTTAGCTTGATTTGGCAGCTGCC (ssDNA) [aptscl 56] it is 19.7 µg/mL.
